Measurements published in patent publication US20240294611A1.
Several values for one entry are separate records, joined by “and”; a condition that tells them apart may be missing. Identical values can stand only once.

Target: SARS-CoV-2 spike (two-proline stabilized S-2P extracellular domain fused to foldon) (SARS-CoV-2) (UniProt P0DTC2)

In the case of antibody S309 (Pinto et al., 2020), the Kd is reported as 7 nM and 20 nM.
